{"source": "paper PMC6274671", "about": "(International Journal of Molecular Sciences, 2018)", "biological_target": "T1, bovine serum albumin (Bos taurus, UniProt P02769)", "T1 construct": "also called BSA", "T1 sequence (P02769 25-607)": "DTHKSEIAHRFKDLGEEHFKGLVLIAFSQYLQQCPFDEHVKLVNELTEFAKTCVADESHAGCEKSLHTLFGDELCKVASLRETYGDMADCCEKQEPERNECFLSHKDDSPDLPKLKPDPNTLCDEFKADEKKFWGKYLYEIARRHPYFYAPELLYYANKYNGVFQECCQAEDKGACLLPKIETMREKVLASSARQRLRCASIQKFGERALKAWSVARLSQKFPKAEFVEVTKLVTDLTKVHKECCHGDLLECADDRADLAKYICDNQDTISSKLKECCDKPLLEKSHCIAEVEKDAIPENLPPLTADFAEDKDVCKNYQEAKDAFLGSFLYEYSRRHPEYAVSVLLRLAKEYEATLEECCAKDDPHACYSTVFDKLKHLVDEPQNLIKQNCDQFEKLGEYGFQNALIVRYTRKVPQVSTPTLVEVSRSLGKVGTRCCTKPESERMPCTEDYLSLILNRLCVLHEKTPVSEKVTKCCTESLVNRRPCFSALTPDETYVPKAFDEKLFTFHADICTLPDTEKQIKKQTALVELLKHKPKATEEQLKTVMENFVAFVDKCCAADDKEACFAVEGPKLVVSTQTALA", "assay": "ELISA", "conditions": "both partners purified"}
{"binder": "fluorescein-specific VHH-D4 (VHH, also called clone D4) VHH: QVQLVESGGALVQPGGSLRLSCAASGFTFGSFSMSWYRQATGKEREWVAGLSAGSSSTYYADSVKGRFTISRDNARNTVYLQMNSLKPEDTAVYYCARRTNTSSGSAGSFSTCIDDWGQGTQVTVSS", "values": [{"measurement": "binding result", "value": "no binding"}]}
